Assay results published in article PMC11623927, “Synthesis and biological assessment of chalcone and pyrazoline derivatives as novel inhibitor for ELF3-MED23 interaction” (eLife, 2024).
Ends that are not written are not given here.

How the values were obtained:
[1] = biological target: T1, MED23 (mediator of RNA polymerase II transcription subunit 23) (Homo sapiens, UniProt Q9ULK4); assay: cell-free fluorescence polarization displacement of FITC-ELF3_[…]-145 from (His)6-MED23_[…]-582; assay type: binding
T1 construct: (His)6-MED23_391-582; with ELF3 (FITC-labeled ELF3_129-145 peptide)

[2] = biological target: T2, (His)6-MED23_(391-582) protein (UniProt Q9ULK4 391-582); assay: fluorescence polarisation; cell-free displacement; varying concentrations of unlabeled ELF3(137-144) peptide added to 80 nM (His)6-MED23(391-582) and 10 nM FITC-ELF3(129-145); Ki from IC50 by the Cheng-Prusoff equation; n=3; conditions: both partners purified
T2 construct: MED23 (mediator of RNA polymerase II transcription subunit 23), residues 391-582
T2 sequence (looked up): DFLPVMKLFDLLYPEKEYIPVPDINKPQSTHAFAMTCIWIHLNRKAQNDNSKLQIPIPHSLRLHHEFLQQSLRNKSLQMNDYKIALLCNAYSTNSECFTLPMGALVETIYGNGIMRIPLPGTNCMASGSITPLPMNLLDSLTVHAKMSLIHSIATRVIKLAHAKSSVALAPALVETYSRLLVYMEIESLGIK

[3] = biological target: T3, (His)6-MED23_(391-582) protein (UniProt Q9ULK4 391-582); assay: FP; competition with FITC-ELF3(129-145)
T3 chain: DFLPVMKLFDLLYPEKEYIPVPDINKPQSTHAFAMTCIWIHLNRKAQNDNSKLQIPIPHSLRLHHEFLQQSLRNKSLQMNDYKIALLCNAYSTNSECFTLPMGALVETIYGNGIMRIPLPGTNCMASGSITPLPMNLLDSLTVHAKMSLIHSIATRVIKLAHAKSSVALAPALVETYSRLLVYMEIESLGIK

[4] = biological target: T2, (His)6-MED23_(391-582) protein; assay: fluorescence polarisation; cell-free; different concentrations of (His)6-MED23(391-582) with 10 nM FITC-ELF3(129-145) in assay buffer; least-squares non-linear fit; n=3; conditions: both partners purified
Cluc-MED23_(391-582) = biological target: T4, Cluc-MED23_(391-582) (UniProt Q9ULK4 391-582); assay: split reporter (BiFC, NanoBiT); split firefly luciferase complementation in HEK293 co-transfected with Nluc-ELF3 and Cluc-MED23(391-582); without compound 10; conditions: partners not purified
T4 construct: MED23 residues 391-582; also called MED23_(391-582) fragment fused with Cluc; source: HEK293, transfected, in cells
T4 sequence (looked up): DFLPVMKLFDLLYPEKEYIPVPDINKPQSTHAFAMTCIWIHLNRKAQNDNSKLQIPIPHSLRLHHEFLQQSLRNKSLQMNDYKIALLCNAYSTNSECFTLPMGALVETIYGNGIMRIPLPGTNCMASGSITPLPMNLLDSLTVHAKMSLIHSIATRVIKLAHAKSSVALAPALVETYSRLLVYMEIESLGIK

A Ki [1] of 0.68 ± 0.08 µM was found for `COc1ccc(/C=C/C(=O)c2cc(OC)c(OC)c(OC)c2)cc1OCC=C(C)C` [compound 10, (E)–3-(4-Methoxy-3-((3-methylbut-2-en-1-yl)oxy)phenyl)–1-(3,4,5-trimethoxyphenyl) prop-2-en-1-one] in this work.

B1: unlabeled ELF3_(137-144) peptide (peptide, UniProt P78545 137-144, looked up)
peptide: SWIIELLE
notes: ELF3 residues 137-144 (S137 to E144), within the TAD domain; Positive control of the FP displacement assay
A Ki [2] of 4.47 µM and an IC50 [3] of 8.81 µM were found for B1 in this work.

B2: fluorescein isothiocyanate (FITC)-labeled ELF3_(129-145) peptide (peptide, UniProt P78545 129-145, looked up)
peptide: TSSSSDELSWIIELLEK
modifications: also: FITC label, position not given here
notes: also called ELF3-FITC peptide (17 a.a.)
A Kd [4] of 0.0102 µM was found for B2 in this work.

B3: Nluc-ELF3WT (natural protein, UniProt P78545 1-371, looked up)
chain: MAATCEISNIFSNYFSAMYSSEDSTLASVPPAATFGADDLVLTLSNPQMSLEGTEKASWLGEQPQFWSKTQVLDWISYQVEKNKYDASAIDFSRCDMDGATLCNCALEELRLVFGPLGDQLHAQLRDLTSSSSDELSWIIELLEKDGMAFQEALDPGPFDQGSPFAQELLDDGQQASPYHPGSCGAGAPSPGSSDVSTAGTGASRSSHSSDSGGSDVDLDPTDGKLFPSDGFRDCKKGDPKHGKRKRGRPRKLSKEYWDCLEGKKSKHAPRGTHLWEFIRDILIHPELNEGLMKWENRHEGVFKFLRSEAVAQLWGQKKKNSNMTYEKLSRAMRYYYKREILERVDGRRLVYKFGKNSSGWKEEEVLQSRN
notes: ELF3, full-length cDNA, wild type; source: HEK293, transfected, in cells
With B3 the “fold change of bioluminescence vs. control” value (Cluc-MED23_(391-582)) was 32.7 fold.
